The target of the experiment is T1, native human C1q (CompTech) (human, UniProt P02745 23-245; P02746 28-253; P02747 29-245).
T1 construct: the subunit make-up A/B/C is from general knowledge
In words: SPR (BIACORE T200), human C1r2s2 captured by immobilised IPN009VH2Vk3-SG1148, native human C1q injected at about 100 nM, pH 7.4, 37 C. An excerpt:
Recombinant human C1r2s2 tetramer was first captured onto the sensor surface by the anti-C1r2s2 antibody. The capture levels were aimed at 200 resonance unit (RU). […] The sensor surface was regenerated each cycle with 3 M MgCl2. Sensorgrams were obtained using BIACORE® T200 Evaluation software, version 2.0 (GE Healthcare). […] For comparison of these sensorgrams, binging response of C1r2s2 was normalized as 100 RU. […] For comparison of these sensorgrams, baseline (before injecting antibodies) was adjusted to 0 RU.
On the technique in general: Surface plasmon resonance follows binding to a sensor surface in real time, without labels.

T1 sequence (P02745 23-245 limits assumed, chain 1 of 3): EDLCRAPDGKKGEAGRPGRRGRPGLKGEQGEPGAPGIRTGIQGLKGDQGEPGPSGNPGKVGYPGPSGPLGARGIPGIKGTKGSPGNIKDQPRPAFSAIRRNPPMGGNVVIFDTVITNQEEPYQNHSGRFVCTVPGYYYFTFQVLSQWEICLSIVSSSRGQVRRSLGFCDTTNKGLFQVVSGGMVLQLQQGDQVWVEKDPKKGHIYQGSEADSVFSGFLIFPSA
T1 sequence (P02746 28-253 limits assumed, chain 2 of 3): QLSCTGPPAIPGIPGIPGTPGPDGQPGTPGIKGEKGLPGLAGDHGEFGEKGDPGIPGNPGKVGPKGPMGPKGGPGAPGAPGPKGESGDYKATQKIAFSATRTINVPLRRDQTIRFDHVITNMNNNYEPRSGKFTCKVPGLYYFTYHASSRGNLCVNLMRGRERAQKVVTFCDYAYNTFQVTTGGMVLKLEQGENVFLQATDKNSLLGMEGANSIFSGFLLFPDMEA
T1 sequence (P02747 29-245 limits assumed, chain 3 of 3): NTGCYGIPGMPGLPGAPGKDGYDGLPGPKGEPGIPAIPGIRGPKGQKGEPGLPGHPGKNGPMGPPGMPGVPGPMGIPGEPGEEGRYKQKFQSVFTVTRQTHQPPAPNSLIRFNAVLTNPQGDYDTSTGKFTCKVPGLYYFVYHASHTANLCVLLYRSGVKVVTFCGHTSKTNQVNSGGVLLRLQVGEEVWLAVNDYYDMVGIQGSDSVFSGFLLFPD

B1: recombinant human C1r2s2 tetramer (other)
chain 1: EPTMYGEILSPNYPQAYPSEVEKSWDIEVPEGYGIHLYFTHLDIELSENCAYDSVQIISGDTEEGRLCGQRSSNNPHSPIVEEFQVPYNKLQVIFKSDFSNEERFTGFAAYYVATDINECTDFVDVPCSHFCNNFIGGYFCSCPPEYFLHDDMKNCGVNCSGDVFTALIGEIASPNYPKPYPENSRCEYQIRLEKGFQVVVTLRREDFDVEAADSAGNCLDSLVFVAGDRQFGPYCGHGFPGPLNIETKSNALDIIFQTDLTGQKKGWKLRYHGDPMPCPKEDTPNSVWEPAKAKYVFRDVVQITCLDGFEVVEGRVGATSFYSTCQSNGKWSNSKLKCQPVDCGIPESIENGKVEDPESTLFGSVIRYTCEEPYYYMENGGGGEYHCAGNGSWVNEVLGPELPKCVPVCGVPREPFEEKQRIIGGSDADIKNFPWQVFFDNPWAGGALINEYWVLTAAHVVEGNREPTMYVGSTSVQTSRLAKSKMLTPEHVFIHPGWKLLEVPEGRTNFDNDIALVRLKDPVKMGPTVSPICLPGTSSDYNLMDGDLGLISGWGRTEKRDRAVRLKAARLPVAPLRKCKEVKVEKPTADAEAYVFTPNMICAGGEKGMDSCKGDSGGAFAVQDPNDKTKFYAAGLVSWGPQCGTYGLYTRVKNYVDWIMKTMQENSTPRED
chain 2: SIPIPQKLFGEVTSPLFPKPYPNNFETTTVITVPTGYRVKLVFQQFDLEPSEGCFYDYVKISADKKSLGRFCGQLGSPLGNPPGKKEFMSQGNKMLLTFHTDFSNEENGTIMFYKGFLAYYQAVDLDECASRSKLGEEDPQPQCQHLCHNYVGGYFCSCRPGYELQEDRHSCQAECSSELYTEASGYISSLEYPRSYPPDLRCNYSIRVERGLTLHLKFLEPFDIDDHQQVHCPYDQLQIYANGKNIGEFCGKQRPPDLDTSSNAVDLLFFTDESGDSRGWKLRYTTEIIKCPQPKTLDEFTIIQNLQPQYQFRDYFIATCKQGYQLIEGNQVLHSFTAVCQDDGTWHRAMPRCKIKDCGQPRNLPNGDFRYTTTMGVNTYKARIQYYCHEPYYKMQTRAGSRESEQGVYTCTAQGIWKNEQKGEKIPRCLPVCGKPVNPVEQRQQIIGGQKAKMGNFPWQVFTNIHGRGGGALLGDRWILTAAHTLYPKEHEAQSNASLDVFLGHTNVEELMKLGNHPIRRVSVHPDYRQDESYNFEGDIALLELENSVTLGPNLLPICLPDNDTFYDLGLMGYVSGFGVMEEKIAHDLRFVRLPVANPQACENWLRGKNRMDVFSQNMFCAGHPSLKQDACQGDAGGVFAVRDPNTDRWVATGIVSWGIGCSRGYGFYTKVLNYVDWIKKEMEEED
notes: C1s and C1r co-expressed in HEK293/FreeStyle 293-F and purified from conditioned medium
In the case of B1, the binding result was “binds”.

Values taken from patent US20240092889A1 (Chugai, published 2024).
